By Kd is commonly meant the constant that tells how readily two partners part at equilibrium. The term koff denotes the first-order rate constant of dissociation. As usually defined, the kon is the rate constant with which the complex forms.

Experiment [1] concerns the target Human rhB7-H3 (human) (UniProt Q5ZPR3). Description: SPR (Biacore 8K/T200), purified IgG as ligand, rhB7-H3 as analyte.
Experiment [2] deals with human 4Ig-B7-H3 extracellular domain (human) (UniProt Q5ZPR3). Description: biolayer interferometry (Octet), antibody captured on the probe, extracellular domain in solution.
Chain of human 4Ig-B7-H3 extracellular domain (human) (Q5ZPR3 29-466): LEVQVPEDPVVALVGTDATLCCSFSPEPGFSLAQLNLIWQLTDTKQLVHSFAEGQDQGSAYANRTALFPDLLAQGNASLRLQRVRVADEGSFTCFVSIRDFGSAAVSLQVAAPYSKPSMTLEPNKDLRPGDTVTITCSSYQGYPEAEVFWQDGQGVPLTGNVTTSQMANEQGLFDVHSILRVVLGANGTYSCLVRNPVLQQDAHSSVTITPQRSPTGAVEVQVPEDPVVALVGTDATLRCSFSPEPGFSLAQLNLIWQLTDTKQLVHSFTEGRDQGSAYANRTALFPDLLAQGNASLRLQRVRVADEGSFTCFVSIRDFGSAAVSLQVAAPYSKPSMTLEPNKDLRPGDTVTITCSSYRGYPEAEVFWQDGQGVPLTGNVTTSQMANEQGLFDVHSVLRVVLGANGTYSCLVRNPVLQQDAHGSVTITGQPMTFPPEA
The target of experiment [3] is Human rhB7-H3 (human) (UniProt Q5ZPR3). The experiment can be described thus: SPR (Biacore 8K/T200), antibody captured via Fc, B7-H3 antigen as analyte at 1.17-75 nM. On the technique in general: SPR reads the build-up and loss of mass on a sensor chip optically.
The target is the same in experiment [4]. The experiment can be described thus: SPR (Biacore 8K/T200), Fab-SASA captured on immobilised albumin, B7-H3 as analyte, 1:1 model.
Experiment [5] deals with human 2Ig-B7-H3 extracellular domain (human) (UniProt Q5ZPR3). The experiment can be described thus: biolayer interferometry (Octet), antibody captured on the probe, extracellular domain in solution. In general terms: Biolayer interferometry detects binding as a change in optical thickness at a sensor tip.
The target of experiment [6] is Porcine 4Ig-B7-H3 extracellular domain (porcine). The experiment is described as above.
Chain of Porcine 4Ig-B7-H3 extracellular domain (porcine) (chain, as listed by the source): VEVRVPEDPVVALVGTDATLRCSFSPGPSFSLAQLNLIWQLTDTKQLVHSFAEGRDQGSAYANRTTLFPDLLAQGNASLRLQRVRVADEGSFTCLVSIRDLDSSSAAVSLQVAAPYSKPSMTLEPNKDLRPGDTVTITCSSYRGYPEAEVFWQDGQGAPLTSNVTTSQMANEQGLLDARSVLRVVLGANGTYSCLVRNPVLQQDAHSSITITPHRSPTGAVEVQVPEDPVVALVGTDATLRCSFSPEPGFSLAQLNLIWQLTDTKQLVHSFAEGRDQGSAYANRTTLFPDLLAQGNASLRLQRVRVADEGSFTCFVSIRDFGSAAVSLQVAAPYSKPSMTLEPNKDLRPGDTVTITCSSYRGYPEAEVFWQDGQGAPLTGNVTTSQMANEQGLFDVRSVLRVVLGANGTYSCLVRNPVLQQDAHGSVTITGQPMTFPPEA
The target of experiment [7] is human 4Ig-B7-H3 extracellular domain (human) (UniProt Q5ZPR3). Description: biolayer interferometry (Octet); ratio of the KD values against 2Ig-B7-H3 as reference.

B1: MIL33B chimeric antibody (full-length IgG) (antibody, V domains shown)
VH: EVQLQQSGPELVKPGASVKMSCKASGYTFTSYVMHWVRQSPGQGLEGIGYINSYSDGTKYNEKFKGKATLTSDKSSSTAYMELSGLTSEDSAVYYCARWGGLGNGAMDYWGQGTSVTVSS
VL: QIVLTQSPAIMSASPGEKVTMTCSVSSSVNYMHWYQQKSGTSPKRWIYDTSKLASGVPARFSASGSGTSYSLTISSMEAEDAATYYCQQWTSNPLTFGAGTKLELKR
In experiment [1], B1 had a Kd of 0.148 nM, a koff of 7.16e-05 s⁻¹ and a kon of 482000 M⁻¹ s⁻¹. The Kd in experiment [2] stood at 0.16 nM. In experiment [3], this molecule returned a Kd of 0.199 nM, a koff of 0.000121 s⁻¹ and a kon of 609000 M⁻¹ s⁻¹.

B2: Chimeric Fab-SASA (Fab, V domains shown)
VH: EVQLQQSGPELVKPGASVKMSCKASGYTFTSYVMHWVRQSPGQGLEGIGYINSYSDGTKYNEKFKGKATLTSDKSSSTAYMELSGLTSEDSAVYYCARWGGLGNGAMDYWGQGTSVTVSS
VL: QIVLTQSPAIMSASPGEKVTMTCSVSSSVNYMHWYQQKSGTSPKRWIYDTSKLASGVPARFSASGSGTSYSLTISSMEAEDAATYYCQQWTSNPLTFGAGTKLELKR
Consider B2, for which, in experiment [4], the Kd was determined as 0.499 nM, the koff was determined as 0.000131 s⁻¹ and the kon amounted to 262000 M⁻¹ s⁻¹.

B3: MIL33B-mIgG2a (murine MIL33B antibody) (antibody, from a related filing, V domains shown)
VH: EVQLQQSGPELVKPGASVKMSCKASGYTFTSYVMHWVRQSPGQGLEGIGYINSYSDGTKYNEKFKGKATLTSDKSSSTAYMELSGLTSEDSAVYYCARWGGLGNGAMDYWGQGTSVTVSS
VL: QIVLTQSPAIMSASPGEKVTMTCSVSSSVNYMHWYQQKSGTSPKRWIYDTSKLASGVPARFSASGSGTSYSLTISSMEAEDAATYYCQQWTSNPLTFGAGTKLELK
For the molecule B3, the Kd in experiment [2] turned out to be 0.0807 nM; in experiment [5], 0.781 nM; in experiment [6], 0.102 nM.

B4: MIL33B-H3-hIgG1 (antibody, V domains shown)
VH: QVQLVQSGAEVKKPGASVKVSCKASGYTFTSYVMHWVRQAPGQRLEWMGYINSYSDGTKYNEKFKGRVTITRDTSASTAYMELSSLRSEDTAVYYCARWGGLGNGAMDYWGQGTLVTVSS
VL: EIVLTQSPATLSLSPGERATLSCSVSSSVNYMHWYQQKPGQAPRRLIYDTSKLASGIPARFSGSGSGTDYTLTISSLEPEDFAVYYCQQWTSNPLTFGQGTKLEIK
In experiment [1], B4 registered a Kd of 0.243 nM, a koff of 0.000117 s⁻¹ and a kon of 481000 M⁻¹ s⁻¹. The same molecule gave a dissociation constant (Kd) in experiment [2] of 0.121 nM. For the same molecule, in experiment [7], the selectivity ratio, 4Ig-B7-H3 over 2Ig-B7-H3 was 360.

B5: AHF15938 Fab-SASA (Fab, V domains shown)
VH: QVQLVQSGAEVKKPGASVKVSCKASGYTFTSYVMHWVRQAPGQRLEWMGYINSYSDGTKYNEKFKGRATITRDTSASTAYMELSSLRSEDTAVYYCARWGGLGNGAMDYWGQGTLVTVSS
VL: EIVLTQSPATLSLSPGERATLSCSVSSSVNYMHWYQQKPGQAPRRLIYDTSKLASGIPARFSGSGSGTDYTLTISSLEPEDFAVYYCQQWTSNPLTFGQGTKLEIK
For B5, in experiment [4], the Kd was 0.00804 nM, the koff stood at 1.97e-06 s⁻¹ and the kon was 245000 M⁻¹ s⁻¹.

B6: MIL33B-H2-hIgG1 (antibody, V domains shown)
VH: QVQLVQSGAEVKKPGASVKVSCKASGYTFTSYVMHWVRQAPGQRLEWMGYINSYSDGTKYNEKFKGRATITRDTSASTAYMELSSLRSEDTAVYYCARWGGLGNGAMDYWGQGTLVTVSS
VL: EIVLTQSPATLSLSPGERATLSCSVSSSVNYMHWYQQKPGQAPRRLIYDTSKLASGIPARFSGSGSGTDYTLTISSLEPEDFAVYYCQQWTSNPLTFGQGTKLEIK
Regarding B6, in experiment [1], the Kd worked out at 0.226 nM, the off-rate constant (koff) is 0.000105 s⁻¹ and the kon came out at 464000 M⁻¹ s⁻¹. In experiment [2], this molecule registered a Kd of 0.12 nM.

B7: AHF15948 Fab-SASA (Fab, V domains shown)
VH: QVQLVQSGAEVKKPGASVKVSCKASGYTFTSYVMHWVRQAPGQRLEWMGYINSYSDGTKYNEKFKGRVTITRDTSASTAYMELSSLRSEDTAVYYCARWGGLGNGAMDYWGQGTLVTVSS
VL: EIVLTQSPATLSLSPGERATLSCSVSSSVNYMHWYQQKPGQAPRRLIYDTSKLASGIPARFSGSGSGTDYTLTISSLEPEDFAVYYCQQWTSNPLTFGQGTKLEIK
In experiment [4], B7 returned a Kd of 0.366 nM, a koff of 9.35e-05 s⁻¹ and a kon of 255000 M⁻¹ s⁻¹.

B8: MIL33B-H1-hIgG1 (antibody, V domains shown)
VH: QVQLVQSGAEVKKPGASVKVSCKASGYTFTSYVMHWVRQAPGQRLEWMGYINSYSDGTKYNEKFKGRVTITSDTSASTAYMELSSLRSEDTAVYYCARWGGLGNGAMDYWGQGTLVTVSS
VL: EIVLTQSPATLSLSPGERATLSCSVSSSVNYMHWYQQKPGQAPRRLIYDTSKLASGIPARFSGSGSGTDYTLTISSLEPEDFAVYYCQQWTSNPLTFGQGTKLEIK
On to B8, for which, in experiment [1], the Kd turned out to be 0.233 nM, the koff is 0.000139 s⁻¹ and the kon stood at 597000 M⁻¹ s⁻¹. Also, the Kd in experiment [2] came to 0.153 nM.

B9: Grafted Fab-SASA (Fab, V domains shown)
VH: QVQLVQSGAEVKKPGASVKVSCKASGYTFTSYVMHWVRQAPGQRLEWMGYINSYSDGTKYNEKFKGRVTITRDTSASTAYMELSSLRSEDTAVYYCARWGGLGNGAMDYWGQGTLVTVSS
VL: EIVLTQSPATLSLSPGERATLSCSVSSSVNYMHWYQQKPGQAPRLLIYDTSKLASGIPARFSGSGSGTDFTLTISSLEPEDFAVYYCQQWTSNPLTFGQGTKLEIKR
For the molecule B9, in experiment [4], the Kd is 28.5 nM, the koff stood at 0.0117 s⁻¹ and the on-rate constant (kon) was 413000 M⁻¹ s⁻¹.

B10: AHF15945 Fab-SASA (Fab, V domains shown)
VH: QVQLVQSGAEVKKPGASVKVSCKASGYTFTSYVMHWVRQAPGQRLEWMGYINSYSDGTKYNEKFKGRVTITSDTSASTAYMELSSLRSEDTAVYYCARWGGLGNGAMDYWGQGTLVTVSS
VL: EIVLTQSPATLSLSPGERATLSCSVSSSVNYMHWYQQKPGQAPRRLIYDTSKLASGIPARFSGSGSGTDYTLTISSLEPEDFAVYYCQQWTSNPLTFGQGTKLEIK
Consider B10, for which, in experiment [4], the Kd is 0.888 nM, the koff came out at 0.000244 s⁻¹ and the kon was found to be 274000 M⁻¹ s⁻¹.

These data come from US20260224701A1.
